Assay results published in patent US20170198014A1, “POLYPEPTIDES AND THEIR USE FOR TREATING INFLUENZA” ([…] ITS CENTER FOR COMMERCIALIZATION, priority 2014, published 2017).

What was measured:
H3 (A/Hong Kong/1/1968) = H3 (A/Hong Kong/1/1968) (Influenza A virus, UniProt Q91MA7); settings: read-out: affinity constant via yeast surface display
H2 (A/Adachi/2/1957) = H2 (A/Adachi/2/1957) (Influenza A virus, UniProt B5UA22); settings: read-out: affinity constant via yeast surface display
[1] = target: H1 (A/NewCaledonia/20/1999) (Influenza A virus, UniProt Q6WG00); settings: read-out: affinity constant via yeast surface display
[2] = target: H1 (A/Solomonislands/3/2006) (Influenza A virus, UniProt A7UPX0); settings: read-out: affinity constant via yeast surface display
H3N2 A/Victoria/361/2011 [3] = format: binding, Influenza A
H2N2 A/Adachi/2/1957 = H2N2 A/Adachi/2/1957 (Influenza A virus, UniProt B5UA22); settings: read-out: Kd (binding constant)
[4] = target: HA of H3N2 A/Hong Kong/1/1968 (Influenza A virus, UniProt Q91MA7); settings: read-out: Kd (binding constant)
H1, H2 and H3 = format: binding, Influenza A
H3N2 A/Victoria/361/2011 [5] = format: binding, Influenza A; remark: listed apart in the source
[6] = target: H1N1 A/New Caledonia/20/1999 (Influenza A virus, UniProt Q6WG00); settings: read-out: Kd (binding constant)

Chain of H1 (A/Solomonislands/3/2006) (A7UPX0 1-565): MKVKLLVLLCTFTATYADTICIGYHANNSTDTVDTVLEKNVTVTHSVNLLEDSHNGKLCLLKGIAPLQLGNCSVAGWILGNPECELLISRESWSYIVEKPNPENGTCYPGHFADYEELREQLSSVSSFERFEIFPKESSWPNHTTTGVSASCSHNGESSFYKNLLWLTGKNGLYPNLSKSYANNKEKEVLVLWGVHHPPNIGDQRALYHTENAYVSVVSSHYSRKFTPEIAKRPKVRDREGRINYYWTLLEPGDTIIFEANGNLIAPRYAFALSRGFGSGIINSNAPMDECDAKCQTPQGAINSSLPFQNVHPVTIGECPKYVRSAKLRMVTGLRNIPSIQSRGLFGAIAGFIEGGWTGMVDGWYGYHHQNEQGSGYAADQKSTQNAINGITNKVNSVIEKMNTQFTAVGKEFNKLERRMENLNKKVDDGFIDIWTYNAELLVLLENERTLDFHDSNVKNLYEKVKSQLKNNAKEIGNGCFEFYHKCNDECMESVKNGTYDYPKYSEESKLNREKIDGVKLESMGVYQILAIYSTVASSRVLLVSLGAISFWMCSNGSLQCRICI

| Substance | Kd (H3 (A/Hong Kong/1/1968)) | Kd (H2 (A/Adachi/2/1957)) | Kd [1] | Kd [2] | binding by yeast display titrations (H3N2 A/Victoria/361/2011 [3]) | Kd (H2N2 A/Adachi/2/1957) | Kd [4] | binding to HA subtypes (H1, H2 and H3) | Kd (binding constant) (H3N2 A/Victoria/361/2011 [5]) | Kd [6] |
| --- | --- | --- | --- | --- | --- | --- | --- | --- | --- | --- |
| GIVNVPN(P/C)NTTKYQQLARSAIAIYNNHQNAHLEFVENLN(V/C)KEQVSYGAMYYITLAATDDAGKKKIYKAKVGVVESAGWVGVEEFKLV [52alt1-3] | 3 nM | 8.5 nM |  |  |  |  |  |  |  |  |
| GIVNVPN(P/C)NTTKYQQLARSAIAVYNYHQNAHLEFVENLN(V/C)KEQIAGKTMYYITLAATDDAGKKKIYKAKVGVVESAGWEGVEEFKLV [52solo2] |  |  | 9.1 nM | 1.7 nM |  |  |  |  |  |  |
| GIVNVPN(P/C)NTTKYQQLARSAIAIYNYHQNAHLEFVENLN(V/C)KEQLGEGDMYYITLAATDDAGKKKIYKAKIGVVESAGWTGVEEFKLV [52NC-2] | 3.9 nM | 9.6 nM | 27.2 nM | 4.4 nM | could not be detected | 289 nM | 180 nM | binding to all three subtypes H1, H2 and H3 | could not be detected | 534 nM |
| GIVNVPN(P/C)NTTKYQQLARRAIAIYNNNQNAHLEFVENLN(V/C)KEQTGLGIMYYITLAATDDAGKKKIYKAKIAVVESAGWVAVSEFKLV [52Sing2] |  |  | 44.9 nM | 17.2 nM |  |  |  |  |  |  |
| GIVNVPN(P/C)NTTKYQQLARSAIAIYNYHQNAHLEFVENLN(V/C)KEQVGGMNMYYITLAATDDAGKKKIYKAKVGVVESAGWKGVEEFKLV [52solo1] | 35.7 nM | > 350 nM | 20.7 nM | 1.8 nM |  |  |  |  |  |  |
